Laboratory results as given in patent publication US20050250090A1, “Assay systems and methods for detecting molecules that interact with SK2 channels” (priority 2003, published 2005).

Molecular target: human SK2 isoform hSK2A+ (small-conductance calcium-activated potassium channel protein), stably exp (human), Q9H2S1
Assay: cell-based or functional assay

human SK2 isoform hSK2A+ (small-conductance calcium-activated potassium channel protein), stably exp (human), Q9H2S1, sequence (Q9H2S1 other isoform, or with tags, fused parts or gaps): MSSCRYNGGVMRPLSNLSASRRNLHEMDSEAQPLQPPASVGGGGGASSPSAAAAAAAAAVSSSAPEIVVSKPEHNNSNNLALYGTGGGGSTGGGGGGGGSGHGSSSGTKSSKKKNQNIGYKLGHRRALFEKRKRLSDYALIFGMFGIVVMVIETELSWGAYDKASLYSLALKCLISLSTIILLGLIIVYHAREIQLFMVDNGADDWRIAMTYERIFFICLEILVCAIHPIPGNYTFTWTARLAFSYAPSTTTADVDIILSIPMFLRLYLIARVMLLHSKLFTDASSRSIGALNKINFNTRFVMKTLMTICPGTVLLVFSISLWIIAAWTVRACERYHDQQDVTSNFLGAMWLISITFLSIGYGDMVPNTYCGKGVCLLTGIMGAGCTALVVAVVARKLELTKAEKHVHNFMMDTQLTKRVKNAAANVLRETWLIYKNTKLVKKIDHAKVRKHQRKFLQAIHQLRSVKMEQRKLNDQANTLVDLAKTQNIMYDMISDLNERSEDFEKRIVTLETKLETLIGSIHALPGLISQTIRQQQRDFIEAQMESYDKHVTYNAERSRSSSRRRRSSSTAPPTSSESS

Work on AFCNLRMCQLSCRSLGLLGKCIGDKCECVKH (modifications not checked) [scyllatoxin, P16341 1-31] yielded a magnitude of the ATP/Tg induced decrease in fluorescence; concentration printed as 'tested at' (FIG. 9 concentration series) of 1.1 nM.
